Experimental findings from the nanobody polyreactivity screen of Harvey et al. (2022) are described below.

The data set can be described thus: yeast display, Sf9 membrane polyspecificity reagent, FACS + sequencing; frameworks hold sequencing errors. The procedure, abridged:
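A nanobody's polyreactivity label depends on the gate it was sorted from. Yeast display cells were stained with 10% biotinylated, detergent-solubilized Sf9 membrane reagent for 1 hour at 4 °C, enriched on streptavidin microbeads and sorted by FACS. The low and high (top ~1%) gates were set on anti-HA fluorescence for expression and streptavidin fluorescence for reagent binding.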
Turning to “QVQLVESGGGLVQAGGSLRLSFAASGQTFRWNAMGWYRQAPGKERELFAAISRGDRTNYADSVKGRFTISRDNAKNTVYLQMNSLNPEDTAVYYCAKTYQTNYYNGTWGVTSYGYWGQGTQVTVSS”, the “polyreactivity (PSR sort gate)” value is given as “high polyreactivity”. As for “QVQLVESGGGLVQAGGSLRLSFAASGRIIRGYAMGRDRQAPGKERELVAAINGGDSTFADSVKGRFTISRDNAKNTVYLQMNSLKPEDTAVYYCAAAHYFLGPQGASFYYWGQGTQVTVSA”, the entry is “low polyreactivity”.

Turning to “QVQLVESGGGLVQAGGSLRLSFAASGRMFTGYAMGWYRQAHGKERELVADITSDGGTYYADSVKGRFTISRDNAKNSVYLQMNSLKPEDTAVYYCAAPRVVFGSSGEDDHWGQGTQVTVSS”, the “polyreactivity (PSR sort gate)” value was “low polyreactivity”. In the case of “QVQLVESGGGLVQAGGSLRLSFAASGRTFRYYAMGWYRQAPGKERELVAAISGRGGSTYYADSVKARFTISRDNAKNSVYLQMNRQKPEDTAVYYCAASFYSIRYDYWGQGTQVTVSS” it was “high polyreactivity”; in that of “QVQLVESGGGLVQAGGSLRLSFAASGRTFVLYTMGWYRQAPGKERELVAAISVGGALTYYADSVRGRFTISRDNAKNTVYLQMNSLKPEDSAVYYCAARRHSRVKYRDYWGQGTQVTVSS”, “high polyreactivity”. Regarding “QVQLVESGGGLVQAGGSLRLSFAASGRTFYIYAMGLYRQDPGKEREMVAAITYGGGRTFYADSVKGRFTISRDNAKYTVYLQMNSLKPEDTAVYYCAKTDTYPRYGRGYDYWGQGTQVTVSS”, the “polyreactivity (PSR sort gate)” value is recorded as “high polyreactivity”. In the case of “QVQLVESGGGLVQAGGSLRLSFAASGSIFLFNAMGWYRQAPGKERELVAAITSPTARTYYADSVKGRFTISRDNAKNTVYLQMNSLKPEDTAVYYCAARYRYAYGYGRGYSWGQGTQVTVSS” it was “high polyreactivity”. With “QVQLVESGGGLVQAGGSLRLSFAASGSIFYRNAMGWYRQAPGKERELVASISASGGRTYYADSVKGRFTISRDNGKNTVYLQMNSVKPEDTAFYYCNKVSPVAYWYSWGINFDYWGQGTQVTVSS”, the “polyreactivity (PSR sort gate)” value was “high polyreactivity”.

For “QVQLVESGGGLVQAGGSLRLSFAASGSNFGPNGMGWYRQAPGKERELVARIDRIGGGTYYADSVKGRFTISRDNAKNNVYLKMNSLKPEETAVYYCAKSGSAYWHSGWSVGFDYWGQGTQVTLSS”, the “polyreactivity (PSR sort gate)” value is “low polyreactivity”. As for “QVQLVESGGGLVQAGGSLRLSFAASGSTFDWYVMGWYRQAPGKERELVAAINQGSGSTYYADSVKGRFTISRDNAKNTVYFQMNSLKPEDTAVYYCAADRYGAGYLYWPYDYWGQGTQVTVSS”, the entry is “low polyreactivity”; as for “QVQLVESGGGLVQAGGSLRLSFAASGSTFGVNAMGWYRQAPGKERELVAVITRSGGSTYYADSVKGRFTISRDNAKNTVYLQMNSLKPEDTAVYYCGKSGVVDWGQGTQVTVSS”, “low polyreactivity”. In the case of “QVQLVESGGGLVQAGGSLRLSFAASGSTFNVHAMGGYRQAPGKERELVAAITSSGGSTNYADSVKGRFTISRDTAKNSVYLQLNSLKPEDTAVYYCAADAIYFSRLNLGYDYWGQGTQVTVSS” it was “low polyreactivity”; in that of “QVQLVESGGGLVQAGGSLRLSFAAYGSIFWGYAMGWYRQAPGKERELVAAISSSGGNTYYADSVKGRFTISRDNAKNTVYLQMNSLKPEDTAVYYCAATPEFYGGKITDVYSQYGYWGQGTQVTVSS”, “low polyreactivity”.

As for “QVQLVESGGGLVQAGGSLRLSGAASGFIFAAYAMGWYRQAPGKERELVASISNGGGSTYYADSVKGRYTISRDNAKNTVYLQMNSQNPEVSAVYYCNARQYYAVTRKYYVRLDYWGQGTQVTVES”, the “polyreactivity (PSR sort gate)” value is recorded as “high polyreactivity”.

As to “QVQLVESGGGLVQAGGSLRLSGAASGGTFDYYAMGRYRQAPGKERELVAAISTSGGRTYYADSVKGRFTISRDNAKYTVYLQMNSLKPEDTAVYYCAALSPRAKYASFYYWGQGTQVTVSS”, the “polyreactivity (PSR sort gate)” value is listed as “high polyreactivity”. On to “QVQLVESGGGLVQAGGSLRLSGAASGRIFQRYVMGWYRQAPGKERELVAAISYSGARTYYADSVKGRFTISRDNAKNTVYLQMNSLKPEDTAVYYCAARIRNWPAMDYWGQGTQETVSS”, for which the “polyreactivity (PSR sort gate)” value is on record as “high polyreactivity”.

“QVQLVESGGGLVQAGGSLRLSGAASGRTFRGNVMGWYRQAPGKEREFVAAITKSDGSTYYADSVKGRFTISRDNAKNTVYLQMNSLKPEDTAVYYCAARTARTGWPWFRYDYWGQGTQVTVSS”: the “polyreactivity (PSR sort gate)” value is “low polyreactivity”. In the case of “QVQLVESGGGLVQAGGSLRLSGAASGRTFRKYAMGWYRQAPGKERELVAAISWSGGSTYYANSVKGRFTISRDNAKNTVYLQMNSLKPEDTAVYYCAAVPVHTGSLYWGFTTGYDYWGQGTQVTVSS” it was “low polyreactivity”; in that of “QVQLVESGGGLVQAGGSLRLSGAASGRTFYQYAMGWYRQAPGKARELVAAISWSDGSTSYADSVKGRFTISRDNAKNTVYLQMNSLKPEDTAGYYCAKDWTGTKAIEYDYWGQGTQVTVSS”, “low polyreactivity”; in that of “QVQLVESGGGLVQAGGSLRLSGAASGRTLYGYAMGWYRQAPGKERELVARITGRDGSTDYADSVKGRFTISRDNAKNTVYFPMNSLKPEETAVYSCNARVRFHWYRSDYWGQGTEVTVSS”, “high polyreactivity”. In the case of “QVQLVESGGGLVQAGGSLRLSRAASGFIFVQNAMVWYRQAPGKERELVASLTSGGTTNYADSVKGRFTISRDNAKNTVYLQMNSLKPEDTAVYYCNARLERTPSLYLYGSWGQGTQVTESS” it was “low polyreactivity”; in that of “QVQLVESGGGLVQAGGSLRLSRAASGRTFRTYAMGWYRQAPGKERELVAAITSGGNTYYADSVKGRFTISRDNAKNTVYLLMNSLKPDDTAVYYCAAAASGFSRYRSTTWGQGTQGTVSS”, “high polyreactivity”; in that of “QVQLVESGGGLVQAGGSLRLSRAASGSIFKYYAMGWYRQAPGKERELVAAITYSGGSTFYADSVKGRFTISRDNAKNTVYLQMNSLKPEDTAVYYCNKVYKSYYWGGYDWGQGTQVTVSS”, “high polyreactivity”. In the case of “QVQLVESGGGLVQAGGSLRLSSAASGFIFIINAMGWYRQAPGKEREFVAAITGSGGSTYYADSVKGRFTISRDNAKNTVYLQMNSLKPEDTAVYYCANVGPYYSGKVYGRTYYSRYGYWGQGTQVTVSS”, the “polyreactivity (PSR sort gate)” value is listed as “low polyreactivity”. In the case of “QVQLVESGGGLVQAGGSLRLSSAASGFIFKYNAMGWYRKAPGKERELGAAITWSGGSTYYADSVKGRFTISRDNAKNTVYLQMNSLKPEDTAVYYCAARPYRTKLIYGYWGQGTHVTVSS” it was “high polyreactivity”; in that of “QVQLVESGGGLVQAGGSLRLSSAASGFIFPDYAMGWYRQAPGKERELVAAISFRDGSTYYADSVKGRFTISRDNAKNTVYLQMNSLKPEDTAVYFCAVRQVNWFGIGYEDDYWGQGTQVTVSS”, “low polyreactivity”; in that of “QVQLVESGGGLVQAGGSLRLSSAASGFIFRGYAMGWYRQAPGKERELVAVISRSGTSTYYADSVKGRFTFSRDNAKNTVYLQMNSLKPEDTAVYYCAVLNYAGKYYYWGQGTQVTVSS”, “high polyreactivity”. As for “QVQLVESGGGLVQAGGSLRLSSAASGFIFSYNAMRWYRQARGKERELVAAITYSDGGTYADSVKARFTISRDNAKNTVDLQMHSLKPEDTAVYYCARRQVLYSRDFEYDYWGQGTLVTVSS”, the entry is “low polyreactivity”; as for “QVQLVESGGGLVQAGGSLRLSSAASGFIFTDYAMGWYIEAPGKEREFVAAIDWSGGNTYYADSVKGRFTISRDNAKNTVYLQMNSLKPEDTAVYYCAASGSAREYDYWGQGSQVTVSS”, “low polyreactivity”; as for “QVQLVESGGGLVQAGGSLRLSSAASGFIFVGNAMGWYRQAPGKERELVATISGADSTNYADSVKGRFTISRDNAKNTVYLQMNSLKPEDTAVYDCAKEGYSYFDGNYGPYRYDYWGQGTQVTVSS”, “low polyreactivity”.
